Target: KAT2-CFP (Arabidopsis thaliana, UniProt Q38849 1-697)
Test: cell-based or functional assay

Chain of KAT2-CFP (Q38849 whole entry): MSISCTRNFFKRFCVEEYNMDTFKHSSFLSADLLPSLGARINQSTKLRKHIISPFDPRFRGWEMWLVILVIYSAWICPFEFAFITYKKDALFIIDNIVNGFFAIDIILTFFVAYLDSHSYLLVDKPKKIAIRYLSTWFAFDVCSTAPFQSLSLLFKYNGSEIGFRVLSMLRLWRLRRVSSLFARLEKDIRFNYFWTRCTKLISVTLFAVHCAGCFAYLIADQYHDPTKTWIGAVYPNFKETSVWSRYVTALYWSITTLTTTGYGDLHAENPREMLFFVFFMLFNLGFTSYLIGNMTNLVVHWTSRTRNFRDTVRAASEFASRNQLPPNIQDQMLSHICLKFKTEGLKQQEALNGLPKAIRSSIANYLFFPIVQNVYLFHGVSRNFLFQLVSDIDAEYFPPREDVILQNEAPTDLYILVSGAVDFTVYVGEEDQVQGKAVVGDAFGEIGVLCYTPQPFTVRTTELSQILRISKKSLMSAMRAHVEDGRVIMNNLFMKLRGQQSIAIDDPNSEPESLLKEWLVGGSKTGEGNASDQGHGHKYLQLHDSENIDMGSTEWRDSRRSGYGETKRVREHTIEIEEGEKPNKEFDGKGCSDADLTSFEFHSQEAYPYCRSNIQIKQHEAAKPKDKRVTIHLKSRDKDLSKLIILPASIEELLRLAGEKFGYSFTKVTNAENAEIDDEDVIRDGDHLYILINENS

KAT2 currents at hyperpolarized potentials (TEVC) in Xenopus laevis oocytes co-expressing KAT2 and AtCPK6, against KAT2 alone: 2 fold
B1: AtCPK6-YFP (enzyme, Arabidopsis thaliana, UniProt Q38872 1-544, looked up)
chain: MGNSCRGSFKDKIYEGNHSRPEENSKSTTTTVSSVHSPTTDQDFSKQNTNPALVIPVKEPIMRRNVDNQSYYVLGHKTPNIRDLYTLSRKLGQGQFGTTYLCTDIATGVDYACKSISKRKLISKEDVEDVRREIQIMHHLAGHKNIVTIKGAYEDPLYVHIVMELCAGGELFDRIIHRGHYSERKAAELTKIIVGVVEACHSLGVMHRDLKPENFLLVNKDDDFSLKAIDFGLSVFFKPGQIFKDVVGSPYYVAPEVLLKHYGPEADVWTAGVILYILLSGVPPFWAETQQGIFDAVLKGYIDFDTDPWPVISDSAKDLIRKMLCSSPSERLTAHEVLRHPWICENGVAPDRALDPAVLSRLKQFSAMNKLKKMALKVIAESLSEEEIAGLRAMFEAMDTDNSGAITFDELKAGLRRYGSTLKDTEIRDLMEAADVDNSGTIDYSEFIAATIHLNKLEREEHLVSAFQYFDKDGSGYITIDELQQSCIEHGMTDVFLEDIIKEVDQDNDGRIDYEEFVAMMQKGNAGVGRRTMKNSLNISMRDV

Reference: PMC7914964, “Ca^2+-Dependent Protein Kinase 6 Enhances KAT2 Shaker Channel Activity in Arabidopsis thaliana” (International Journal of Molecular Sciences, 2021)
